Blank lines part the entries; values can stand above or below the binder they belong to.
Columns and labels:
[1] = biological target: T1, mouse C3b (mouse, UniProt P01027 25-666; P01027 749-1663, limits assumed); assay: ELISA, mouse C3b immobilised on the plate; no upper plateau in the range shown
Source text: (§1) Specifically, a human C3b protein was immobilized on a plate, and C1.01, C1.02, C1.03, and C1.04, and hIgG1 as a control were bound thereto. Next, an anti-human immunoglobulin G antibody and an anti-horseradish peroxidase (HRP) antibody were sequentially bound thereto. Moreover, a mouse C3b protein was immobilized on a plate, and C1.01m to C1.03m containing mouse CRIg were bound to mouse C3b.

[2] = biological target: T2, human VEGF165 (human, UniProt P15692-4 27-191); assay: Biacore SPR; the analyte is not printed on the sheet, human VEGF165 by legend paragraph 26
T2 construct: also called human VEGF165 protein
Procedure: In order to measure the binding force of the fusion protein, the physical properties of the prepared fusion protein were analyzed using Biacore 8K (GE Healthcare, 29129951) instrument.
(§2) A C3b stock solution was diluted to 50 nM using a 1×HBS-EP+ buffer. Human VEGF165 was diluted to 5 nM using a 1×HBS-EP+ buffer. The 50 nM and 5 nM solutions were then diluted to 0.78125 nM and 0.078125 nM. In the sample step, the diluted antigens were injected into the flow cells at a rate of 30 μL/min. Two 0 nM antigens (1×HBS-EP+ buffer) were used and removed from the reference signal. Binding for 180 seconds and separation for 400 seconds were performed. After the separation time, a stabilization step for 60 seconds was performed. In the regeneration step, 10 mM glycine (pH 1.5) was injected into the flow cells at a rate of 30 μL/min for 30 seconds, followed by a stabilization step for 60 seconds.
(§3) After subtracting the reference and 0 nM values from the sample values, binding kinetics were calculated using Biacore Insight Evaluation Software (Version 2.0.15.12933) and 1:1 binding model for curved fitting.

[3] = biological target: T1, mouse C3b; assay: Biacore SPR, 1:1 fit; analyte series 0.78125-50 nM; the analyte is not printed on the sheet, mouse C3b by legend paragraph 26 and the C3b dilution series of paragraph 225
Procedure: as §2, §3

[4] = biological target: T1, mouse C3b; assay: ELISA, mouse C3b immobilised on the plate; the printed value lies above the highest concentration shown (Log10 about 1.2), the curve reaches only OD450 about 1
Source text: as §1

T1 sequence (P01027 25-666 limits assumed, chain 1 of 2): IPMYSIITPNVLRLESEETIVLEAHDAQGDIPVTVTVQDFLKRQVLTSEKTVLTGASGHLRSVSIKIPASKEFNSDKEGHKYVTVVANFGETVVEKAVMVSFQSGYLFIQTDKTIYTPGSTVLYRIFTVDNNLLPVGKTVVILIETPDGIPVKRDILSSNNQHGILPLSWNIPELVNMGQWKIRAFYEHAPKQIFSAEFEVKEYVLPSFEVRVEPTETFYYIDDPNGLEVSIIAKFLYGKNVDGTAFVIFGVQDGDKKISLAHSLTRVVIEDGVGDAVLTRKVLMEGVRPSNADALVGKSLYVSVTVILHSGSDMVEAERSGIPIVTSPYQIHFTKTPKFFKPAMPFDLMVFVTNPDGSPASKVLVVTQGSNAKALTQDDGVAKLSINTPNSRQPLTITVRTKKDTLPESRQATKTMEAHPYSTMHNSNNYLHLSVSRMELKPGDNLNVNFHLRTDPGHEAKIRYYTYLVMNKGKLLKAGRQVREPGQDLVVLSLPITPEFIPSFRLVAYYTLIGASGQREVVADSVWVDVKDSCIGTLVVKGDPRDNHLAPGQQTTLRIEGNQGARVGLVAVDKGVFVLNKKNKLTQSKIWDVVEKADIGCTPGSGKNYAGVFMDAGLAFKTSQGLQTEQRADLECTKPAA
T1 sequence (P01027 749-1663 limits assumed, chain 2 of 2): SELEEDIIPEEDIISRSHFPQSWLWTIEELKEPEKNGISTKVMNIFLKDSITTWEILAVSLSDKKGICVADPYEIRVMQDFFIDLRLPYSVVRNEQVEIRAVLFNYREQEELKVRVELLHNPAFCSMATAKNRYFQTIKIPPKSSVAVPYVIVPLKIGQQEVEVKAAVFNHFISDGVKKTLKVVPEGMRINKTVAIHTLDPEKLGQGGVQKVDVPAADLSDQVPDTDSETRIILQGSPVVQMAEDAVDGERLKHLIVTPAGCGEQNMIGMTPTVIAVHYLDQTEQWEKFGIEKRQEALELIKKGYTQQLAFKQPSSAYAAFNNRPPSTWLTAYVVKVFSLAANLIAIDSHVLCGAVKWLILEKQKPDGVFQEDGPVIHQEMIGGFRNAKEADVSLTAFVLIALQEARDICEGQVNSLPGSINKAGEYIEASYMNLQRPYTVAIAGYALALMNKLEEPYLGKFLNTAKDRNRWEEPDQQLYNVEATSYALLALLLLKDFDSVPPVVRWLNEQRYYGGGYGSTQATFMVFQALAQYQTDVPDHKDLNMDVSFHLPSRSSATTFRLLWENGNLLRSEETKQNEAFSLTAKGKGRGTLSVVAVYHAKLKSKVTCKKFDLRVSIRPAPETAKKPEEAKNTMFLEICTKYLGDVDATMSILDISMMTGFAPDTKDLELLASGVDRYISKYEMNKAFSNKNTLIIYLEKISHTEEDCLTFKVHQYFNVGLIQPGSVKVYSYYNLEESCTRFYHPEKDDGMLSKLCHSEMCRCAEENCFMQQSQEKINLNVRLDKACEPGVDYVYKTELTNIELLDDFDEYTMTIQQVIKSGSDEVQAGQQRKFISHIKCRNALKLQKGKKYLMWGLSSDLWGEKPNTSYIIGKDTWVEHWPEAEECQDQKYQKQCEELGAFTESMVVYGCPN
T2 sequence (P15692 other isoform, or with tags, fused parts or gaps): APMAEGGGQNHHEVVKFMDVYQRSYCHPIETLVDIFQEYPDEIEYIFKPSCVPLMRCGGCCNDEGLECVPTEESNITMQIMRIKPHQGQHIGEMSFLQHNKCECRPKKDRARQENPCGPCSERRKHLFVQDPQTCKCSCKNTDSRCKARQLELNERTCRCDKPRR

EC50 [1]: 1.85 µg/mL | binding result [2]: binds | Kd [3]: 7.97 pM
B1: C1.02m (mu CRIg-mu IgG2a Fc DANG-VEGF binder) (Fc fusion)
chain: HPTLKTPESVTGTWKGDVKIQCIYDPLRGYRQVLVKWLVRHGSDSVTIFLRDSTGDHIQQAKYRGRLKVSHKVPGDVSLQINTLQMDDRNHYTCEVTWQTPDGNQVIRDKIIELRVRKYNPPRINTEAPTTLHSSLEATTIMSSTSDLTTNGTGKLEETIAGSGRNLPGGGGSEPRGPTIKPCPPCKCPAPNLLGGPSVFIFPPKIKDVLMISLSPIVTCVVVAVSEDDPDVQISWFVNNVEVHTAQTQTHREDYGSTLRVVSALPIQHQDWMSGKEFKCKVNNKDLPAPIERTISKPKGSVRAPQVYVLPPPEEEMTKKQVTLTCMVTDFMPEDIYVEWTNNGKTELNYKNTEPVLDSDGSYFMYSKLRVEKKNWVERNSYSCSVVHEGLHNHHTTKSFSRTPGGGGGSGGGGSSDTGRPFVEMYSEIPEIIHMTEGRELVIPCRVTSPNITVTLKKFPLDTLIPDGKRIIWDSRKGFIISNATYKEIGLLTCEATVNGHLYKTNYLTHRQTNTIIDVVLSPSHGIELSVGEKLVLNCTARTELNVGIDFNWEYPSSKHQHKKLVNRDLKTQSGSEMKKFLSTLTIDGVTRSDQGLYTCAASSGLMTKKNSTFVRVHEK

EC50 [4]: 31.1 µg/mL
B2: C1.03m (mu IgG2a Fc DANG-mu CRIg) (Fc fusion)
chain: EPRGPTIKPCPPCKCPAPNLLGGPSVFIFPPKIKDVLMISLSPIVTCVVVAVSEDDPDVQISWFVNNVEVHTAQTQTHREDYGSTLRVVSALPIQHQDWMSGKEFKCKVNNKDLPAPIERTISKPKGSVRAPQVYVLPPPEEEMTKKQVTLTCMVTDFMPEDIYVEWTNNGKTELNYKNTEPVLDSDGSYFMYSKLRVEKKNWVERNSYSCSVVHEGLHNHHTTKSFSRTPGGGGGSGGGGSHPTLKTPESVTGTWKGDVKIQCIYDPLRGYRQVLVKWLVRHGSDSVTIFLRDSTGDHIQQAKYRGRLKVSHKVPGDVSLQINTLQMDDRNHYTCEVTWQTPDGNQVIRDKIIELRVRKYNPPRINTEAPTTLHSSLEATTIMSSTSDLTTNGTGKLEETIAGSGRNLPG

EC50 [1]: 0.821 µg/mL | Kd [3]: 0.987 pM
B3: C1.01m (mu CRIg-mu IgG2a Fc DANG) (Fc fusion)
chain: HPTLKTPESVTGTWKGDVKIQCIYDPLRGYRQVLVKWLVRHGSDSVTIFLRDSTGDHIQQAKYRGRLKVSHKVPGDVSLQINTLQMDDRNHYTCEVTWQTPDGNQVIRDKIIELRVRKYNPPRINTEAPTTLHSSLEATTIMSSTSDLTTNGTGKLEETIAGSGRNLPGGGGSEPRGPTIKPCPPCKCPAPNLLGGPSVFIFPPKIKDVLMISLSPIVTCVVVAVSEDDPDVQISWFVNNVEVHTAQTQTHREDYGSTLRVVSALPIQHQDWMSGKEFKCKVNNKDLPAPIERTISKPKGSVRAPQVYVLPPPEEEMTKKQVTLTCMVTDFMPEDIYVEWTNNGKTELNYKNTEPVLDSDGSYFMYSKLRVEKKNWVERNSYSCSVVHEGLHNHHTTKSFSRTPGK
